Measured values published in patent US20140302035A1 (MERRIMACK PHARMACEUTICALS, published 2014).
Blank lines part the entries; values can stand above or below the binder they belong to.

Target: T1, Human EpCAM-Fc-his tagged (human)
T1 construct: also called Recombinant polyhistidine-tagged EpCAM-Fc; recombinant EpCAM
Assay: BLI (ForteBio Octet), antibody loaded on Protein A tips, recombinant polyhistidine-tagged EpCAM-Fc in solution, 1:1 model
Protocol: For Octet analysis, all reagents and samples are brought to room temperature. Protein A sensor tips (ForteBio, #18-5010) are hydrated for 10 minutes in 1×PBS. Assay steps include: 1-2 minutes of equilibration in 1×PBS, 4 minutes of antibody loading (concentration of 50 μg/ml in 1×PBS), 1-2 minutes of baseline stabilization, 4 minutes of antibody:antigen association, and 4 minutes of antibody:antigen dissociation. 1×PBS is used as the matrix throughout. Data are analyzed with Octet Data Analysis software, processed, and fit to a 1:1 binding model to determine kinetic parameters (Kd, kₒₙ and kdiss).
Table A-2 describes approximate EpCAM binding affinity and dissociation rate as determined for Ab#1, Ab#2, Ab#3, Ab#4, Ab#5, Ab#6, Ab#7, Ab#8, Ab#9, Ab#10, Ab#11, Ab#12, and Ab#13.

T1 sequence (chain, as listed by the source): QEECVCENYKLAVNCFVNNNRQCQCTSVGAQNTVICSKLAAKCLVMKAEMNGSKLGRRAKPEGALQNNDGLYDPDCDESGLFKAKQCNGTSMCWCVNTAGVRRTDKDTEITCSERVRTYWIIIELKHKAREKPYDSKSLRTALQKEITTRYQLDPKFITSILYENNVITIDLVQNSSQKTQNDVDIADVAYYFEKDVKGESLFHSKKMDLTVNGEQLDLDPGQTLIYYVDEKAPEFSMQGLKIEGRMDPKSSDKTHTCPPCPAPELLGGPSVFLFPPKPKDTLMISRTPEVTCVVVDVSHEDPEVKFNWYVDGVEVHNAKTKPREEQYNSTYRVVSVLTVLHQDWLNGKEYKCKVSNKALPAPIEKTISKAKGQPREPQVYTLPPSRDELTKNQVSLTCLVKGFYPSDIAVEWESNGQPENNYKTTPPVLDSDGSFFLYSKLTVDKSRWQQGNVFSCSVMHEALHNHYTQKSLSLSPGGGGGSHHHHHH

B1: Ab#3 (bispecific antibody, human IgG1, kappa)
heavy: QLQLQESGPGLVKPSETLSLTCTVSGGSISSSVYYWSWIRQPPGKGLEWIGVIYPSGNTYYSPSLKSRVTISVDTSKNQFSLKLSSVTAADTAVYYCARTIYDLFDIWGQGTMVTVSSASTKGPSVFPLAPSSKSTSGGTAALGCLVKDYFPEPVTVSWNSGALTSGVHTFPAVLQSSGLYSLSSVVTVPSSSLGTQTYICNVNHKPSNTKVDKKVEPKSCDKTHTCPSCPAPEFLGGPSVFLFPPKPKDTLMISRTPEVTCVVVDVSQEDPEVQFNWYVDGVEVHNAKTKPREEQFNSKYRVVSVLTVLHQDWLNGKEYKCKVSNKGLPSSIEKTISKAKGQPREPQVYTLPPSREEMTKNQVSLSCAVKGFYPSDIAVEWESNGQPENNYKTTPPVLDSDGSFFLVSKLTVDKSRWQQGNVFSCSVMHEALHNHYTQKSLSLSKSCDKTGGGGSGGGGSGGGGSGGGGSGGGGSGGGGSGGGGSGGGGSCPSCPAPEFLGGPSVFLFPPKPKDTLMISRTPEVTCVVVDVSQEDPEVQFNWYVDGVEVHNAKTKPREEQFNSDYRVVSVLTVLHQDWLNGKEYKCKVSNKGLPSSIEKTISKAKGQPREPQVYTLPPSREEMTKNQVSLWCLVKGFYPSDIAVEWESNGQPENNYKTTPPVLDSDGSFFLYSKLTVDKSRWQQGNVFSCSVMHEALHNHYTQKSLSLSGECGGGGSGGGGSQVQLVQSGSELKKPGESVKVSCKASGYTFTNYGMNWVRQAPGQGLKWMGWINTYTGESTYADDFKGRFAFSLDTSASTAYLQISSLKAEDTAVYFCARFAIKGDYWGQGTLVTVSSASTGGGGSGGGGSGGGGSGGGGSDIVMTQSPLSLPVTPGEPASISCRSTKSLLHSDGITYLYWYLQKPGQSPQLLIYQLSNLASGVPDRFSSSGSGTDFTLKISRVEAEDEGVYYCAQNLEIPRTFGQGTKVEIK
light: DIQMTQSPSSVSASVGDRVTITCRASQGISSWLAWYQQKPGKAPKLLIYAASSLQSGVPSRFSGSGSGTDFTLTISSLQPEDFATYYCLQANSFPPTFGGGTKVEIKRTVAAPSVFIFPPSDEQLKSGTASVVCLLNNFYPREAKVQWKVDNALQSGNSQESVTEQDSKDSTYSLSSTLTLSKADYEKHKVYACEVTHQGLSSPVTKSFNRGEC
notes: Anti-c-Met Fab / tandem Fc / anti-EpCAM scFv TFcBA; also called Antibody #3
Kd: 17 nM
koff: 0.00174 s⁻¹

B2: Ab#4 (bispecific antibody, human IgG1, kappa)
heavy: QLQLQESGPGLVKPSETLSLTCTVSGGSISSSVYYWSWIRQPPGKGLEWIGVIYPSGNTYYSPSLKSRVTISVDTSKNQFSLKLSSVTAADTAVYYCARTIYDLFDIWGQGTMVTVSSASTKGPSVFPLAPSSKSTSGGTAALGCLVKDYFPEPVTVSWNSGALTSGVHTFPAVLQSSGLYSLSSVVTVPSSSLGTQTYICNVNHKPSNTKVDKKVEPKSCDKTHTCPSCPAPEFLGGPSVFLFPPKPKDTLMISRTPEVTCVVVDVSQEDPEVQFNWYVDGVEVHNAKTKPREEQFNSKYRVVSVLTVLHQDWLNGKEYKCKVSNKGLPSSIEKTISKAKGQPREPQVYTLPPSREEMTKNQVSLSCAVKGFYPSDIAVEWESNGQPENNYKTTPPVLDSDGSFFLVSKLTVDKSRWQQGNVFSCSVMHEALHNHYTQKSLSLSKSCDKTGGGGSGGGGSGGGGSGGGGSGGGGSGGGGSGGGGSGGGGSCPSCPAPEFLGGPSVFLFPPKPKDTLMISRTPEVTCVVVDVSQEDPEVQFNWYVDGVEVHNAKTKPREEQFNSDYRVVSVLTVLHQDWLNGKEYKCKVSNKGLPSSIEKTISKAKGQPREPQVYTLPPSREEMTKNQVSLWCLVKGFYPSDIAVEWESNGQPENNYKTTPPVLDSDGSFFLYSKLTVDKSRWQQGNVFSCSVMHEALHNHYTQKSLSLSGECGGGGSGGGGSDIVMTQSPLSLPVTPGEPASISCRSTKSLLHSDGITYLYWYLQKPGQSPQLLIYQLSNLASGVPDRFSSSGSGTDFTLKISRVEAEDEGVYYCAQNLEIPRTFGQGTKVEIKRTGGGGSGGGGSGGGGSGGGGSGQVQLVQSGSELKKPGESVKVSCKASGYTFTNYGMNWVRQAPGQGLKWMGWINTYTGESTYADDFKGRFAFSLDTSASTAYLQISSLKAEDTAVYFCARFAIKGDYWGQGTLVTVSS
light: B1 light
notes: Anti-c-Met Fab / tandem Fc / anti-EpCAM scFv TFcBA; also called Antibody #4
Kd: 19.4 nM
koff: 0.00174 s⁻¹

Continued, values first:

Kd: 11.2 nM
koff: 0.00122 s⁻¹
B3: Ab#6 (bispecific antibody, human IgG1, kappa)
heavy: QLQLQESGPGLVKPSETLSLTCTVSGGSISSSVYYWSWIRQPPGKGLEWIGVIYPSGNTYYSPSLKSRVTISVDTSKNQFSLKLSSVTAADTAVYYCARTIYDLFDIWGQGTMVTVSSASTKGPSVFPLAPSSKSTSGGTAALGCLVKDYFPEPVTVSWNSGALTSGVHTFPAVLQSSGLYSLSSVVTVPSSSLGTQTYICNVNHKPSNTKVDKKVEPKSCDKTHTCPSCPAPEFLGGPSVFLFPPKPKDTLMISRTPEVTCVVVDVSQEDPEVQFNWYVDGVEVHNAKTKPREEQFNSKYRVVSVLTVLHQDWLNGKEYKCKVSNKGLPSSIEKTISKAKGQPREPQVYTLPPSREEMTKNQVSLSCAVKGFYPSDIAVEWESNGQPENNYKTTPPVLDSDGSFFLVSKLTVDKSRWQQGNVFSCSVMHEALHNHYTQKSLSLSKSCDKTGGGGSGGGGSGGGGSGGGGSGGGGSGGGGSGGGGSGGGGSCPSCPAPEFLGGPSVFLFPPKPKDTLMISRTPEVTCVVVDVSQEDPEVQFNWYVDGVEVHNAKTKPREEQFNSDYRVVSVLTVLHQDWLNGKEYKCKVSNKGLPSSIEKTISKAKGQPREPQVYTLPPSREEMTKNQVSLWCLVKGFYPSDIAVEWESNGQPENNYKTTPPVLDSDGSFFLYSKLTVDKSRWQQGNVFSCSVMHEALHNHYTQKSLSLSGECGGGGSGGGGSDIVMTQSPLSLPVTPGEPASISCRSTKSLLHSDGITYLYWYLQKPGQSPQLLIYQLSNLASGVPDRFSSSGSGTDFTLKISRVEAEDEGVYYCAQNLEIPRTFGGGTKLEIKRTGGGGSGGGGSGGGGSGGGGSQVQLVQSGAEVKKPGESVKISCKASGYTFTNYGMNWVRQAPGQGLKWMGWINTYTGESTYADDFKGRFAFSLDTSASTAYLQLSSLRSEDTAVYFCARFAIKGDYWGQGTLVTVSS
light: B1 light
notes: Anti-c-Met Fab / tandem Fc / anti-EpCAM scFv TFcBA; also called Antibody #6

Kd: 16.7 nM
koff: 0.00098 s⁻¹
B4: Ab#8 (bispecific antibody, human IgG1, kappa)
heavy: QLQLQESGPGLVKPSETLSLTCTVSGGSISSSVYYWSWIRQPPGKGLEWIGVIYPSGNTYYSPSLKSRVTISVDTSKNQFSLKLSSVTAADTAVYYCARTIYDLFDIWGQGTMVTVSSASTKGPSVFPLAPSSKSTSGGTAALGCLVKDYFPEPVTVSWNSGALTSGVHTFPAVLQSSGLYSLSSVVTVPSSSLGTQTYICNVNHKPSNTKVDKKVEPKSCDKTHTCPSCPAPEFLGGPSVFLFPPKPKDTLMISRTPEVTCVVVDVSQEDPEVQFNWYVDGVEVHNAKTKPREEQFNSKYRVVSVLTVLHQDWLNGKEYKCKVSNKGLPSSIEKTISKAKGQPREPQVYTLPPSREEMTKNQVSLSCAVKGFYPSDIAVEWESNGQPENNYKTTPPVLDSDGSFFLVSKLTVDKSRWQQGNVFSCSVMHEALHNHYTQKSLSLSKSCDKTGGGGSGGGGSGGGGSGGGGSGGGGSGGGGSGGGGSGGGGSCPSCPAPEFLGGPSVFLFPPKPKDTLMISRTPEVTCVVVDVSQEDPEVQFNWYVDGVEVHNAKTKPREEQFNSDYRVVSVLTVLHQDWLNGKEYKCKVSNKGLPSSIEKTISKAKGQPREPQVYTLPPSREEMTKNQVSLWCLVKGFYPSDIAVEWESNGQPENNYKTTPPVLDSDGSFFLYSKLTVDKSRWQQGNVFSCSVMHEALHNHYTQKSLSLSGECGGGGSGGGGSQVQLVQSGAEVKKPGESVKISCKASGYTFTNYGMNWVRQAPGQGLKWMGWINTYTGESTYADDFKGRFAFSLDTSASTAYLQLSSLRSEDTAVYFCARFAIKGDYWGQGTLVTVSSASTGGGGSGGGGSGGGGSGGGGSDIVMTQSPLSLPVTPGEPASISCRSTKSLLHSDGITYLYWYLQKPGQSPQLLIYQMSNLASGVPDRFSSSGSGTDFTLKISRVEAEDEGVYYCAQNLEIPRTFGGGTKLEIKRT
light: B1 light
notes: Anti-c-Met Fab / tandem Fc / anti-EpCAM scFv TFcBA; also called Antibody #8
